The target in assay [1] is HLA-A2.1 (HLA-A*0201) on the surface of T2 cells (human). The assay can be described thus: peptide-binding assay, stabilisation of HLA-A2 on the surface of T2 cells, fluorescence intensity relative to PR1.
For assay [2], the target named is HLA-A2.1 heavy chain with I125-labeled beta2-microglobulin (heterotrimer dissociation assay) (human). Nature of the assay: dissociation of I125-labeled beta2-microglobulin from the heavy chain/peptide/beta2-microglobulin complex, HPLC gel filtration. On the technique in general: Size exclusion chromatography separates by hydrodynamic size, large species first.

This passage reports FI CCNE1144-152/FI PR1 and T1/2 results from patent US20060045883A1, “Anti-cancer vaccines” (priority 2004, published 2006).

“CCNE1144-152 (cyclin E1 derived nonameric peptide) (from UniProt P24864 144-152)” yielded an FI CCNE1144-152/FI PR1 in assay [1] of 1.01. “HTLV-1 Tax peptide (aa 11-19) (from UniProt P03409 11-19) (peptide; other documents disagree on this pair)” had a T1/2 in assay [2] of 133 h.
